Assay results taken from US20040258656, “High affinity TGFbeta nucleic acid ligands and inhibitors” (published 2004).
Where two headings read alike, the source gives them in different places.

Experiments:
[1] = target: T1, TGFβ1 (transforming growth factor beta 1) (Homo sapiens, UniProt P01137 SEQ:1-112); experiment: bioactivity +++; details: chain copies: 2 (inferred, homodimer)
[2] = target: T1, TGFβ1 (transforming growth factor beta …)
[3] = target: T2, TGFβ2 (transforming growth factor beta 2) (Homo sapiens, UniProt P61812 SEQ:1-112); experiment: filter; 37C; Ki 10 nM in cell assay; details: chain copies: 2 (inferred, homodimer)
T2 sequence: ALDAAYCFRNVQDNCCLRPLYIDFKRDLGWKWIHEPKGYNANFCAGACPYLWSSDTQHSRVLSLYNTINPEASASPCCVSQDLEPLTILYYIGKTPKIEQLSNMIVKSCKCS
Method: (§1) The binding activity of individual ligands was determined by measuring the equilibrium dissociation constants using nitrocellulose partitioning of labeled RNA as a function of protein concentration. RNA was body-labeled or guanylated and then 5′-end labeled with γ-³²P ATP and T4 polynucleotide kinase. Binding reactions were set at various protein concentrations (typically varied in either 3-fold or 10-fold increments) while maintaining the labeled RNA concentration constant at less than 0.1 nM, and incubated at 37° C. for 10 minutes. Protein-RNA complexes were partitioned away from uncomplexed RNA, by filtering the binding reactions through a nitrocellulose/cellulose acetated mixed matrix (0.45 μm pore size filter disks, type HA; Millipore, Co., Bedford, Mass.). For filtration, the filters were placed onto a vacuum manifold (12-well, Millipore, or 96-well BRL) and wetted by aspirating 1-5 ml of binding buffer. The binding reactions were aspirated through the filters, washed with 1-5 ml of binding buffer and counted in a scintillation counter (Beckmann).

[4] = target: T2, TGFβ2 (transforming growth factor beta …); experiment: cell_activity; mink lung epithelial cell proliferation; details: chain copies: 2 (homodimer, stated)
Method: (§2) The bioactivity of TGFβ2 nucleic acid ligands was measured with mink lung epithelial cells. Proliferation of these cells is inhibited by TGFβ2. Human TGFβ2 was titrated on the cells and ³H-thymidine incorporation was measured. […] This inhibitory amount of TGFβ2 along with varying amounts of nucleic acid ligand (typically 0.3 or 1 nM to 1 or 3 μM, in 3 fold increments) was used. Typically, cells were plated at 10E5/ml in 96-well plates in 100 μl MEM, 10 mM HEPES pH 7.4, 0.2% FBS. […] After incubation, the cells were lysed with 1% Triton X-100 and harvested onto GF/B filter plates in a Packard 96 well plate harvester, and ³H-thymidine incorporation in cellular DNA was quantitated by scintillation counting in MicroScint (Packard, Mariden, Conn.) in a Packard Top-Count. Data were plotted as % of maximum ³H-thymidine incorporation vs RNA concentration, and were fitted by the software Kaleidagraph (Synergy Software, Reading, Pa.) to the equation m3*(m0+m1+(m2)−((m0+m1+(m2))*(m0+m1+(m2))−4*(m0)*( m2)))\hat{ }0.5)/(2*(m2)); where m0 is the concentration of competitor RNA; m1 is the IC50, m2 is the concentration of TGFβ2, and m3 is the plateau value of the fraction of maximum ³H-thymidine incorporation. […]

[5] = target: T2, TGFβ2 (transforming growth factor beta …); experiment: filter; details: chain copies: 2 (inferred, homodimer)
[6] = target: T2, TGFβ2 (transforming growth factor beta …); experiment: cell_activity; mink lung epithelial cell proliferation; details: chain copies: 2 (inferred, homodimer)
Method: The bioactivity of TGFβ2 nucleic acid ligands was measured with mink lung epithelial cells. Proliferation of these cells is inhibited by TGFβ2. Human TGFβ2 was titrated on the cells and ³H-thymidine incorporation was measured. […] This inhibitory amount of TGFβ2 along with varying amounts of nucleic acid ligand (typically 0.3 or 1 nM to 1 or 3 μM, in 3 fold increments) was used. Typically, cells were plated at 10E5/ml in 96-well plates in 100 μl MEM, 10 mM HEPES pH 7.4, 0.2% FBS. […] After incubation, the cells were lysed with 1% Triton X-100 and harvested onto GF/B filter plates in a Packard 96 well plate harvester, and ³H-thymidine incorporation in cellular DNA was quantitated by scintillation counting in MicroScint (Packard, Mariden, Conn.) in a Packard Top-Count. Data were plotted as % of maximum ³H-thymidine incorporation vs RNA concentration, and were fitted by the software Kaleidagraph (Synergy Software, Reading, Pa.) to the equation m3*(m0+m1+(m2)−((m0+m1+(m2))*(m0+m1+(m2))−4*(m0)*( m2)))\hat{ }0.5)/(2*(m2)); where m0 is the concentration of competitor RNA; m1 is the IC50, m2 is the concentration of TGFβ2, and m3 is the plateau value of the fraction of maximum ³H-thymidine incorporation.

[7] = target: T2, TGFβ2 (transforming growth factor beta …); experiment: filter; 37C; Ki 30 nM in cell assay; details: chain copies: 2 (inferred, homodimer)
Method: as §1

[8] = target: T2, TGFβ2 (transforming growth factor beta …); experiment: filter; details: chain copies: 2 (inferred, homodimer); remark: listed apart in the source
[9] = target: T2, TGFβ2 (transforming growth factor beta …); experiment: filter; details: chain copies: 2 (inferred, homodimer); remark: listed apart in the source
[10] = target: T2, TGFβ2 (transforming growth factor beta …); experiment: filter; 37C; Ki 230 nM in cell assay; details: chain copies: 2 (inferred, homodimer)
Method: as §1

[11] = target: T2, TGFβ2 (transforming growth factor beta …); experiment: cell_activity; mink lung epithelial cell proliferation; text p154 about 200 nM; details: chain copies: 2 (homodimer, stated)
Method: as §2

[12] = target: T2, TGFβ2 (transforming growth factor beta …); experiment: filter; Table 18 footnote states ~1 nM; Ki ~10 nM; details: chain copies: 2 (inferred, homodimer)

T1 sequence (P01137 279-390): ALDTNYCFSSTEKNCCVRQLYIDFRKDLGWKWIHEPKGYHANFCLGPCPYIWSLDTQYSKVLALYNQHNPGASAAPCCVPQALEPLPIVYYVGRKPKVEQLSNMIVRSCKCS

GGGUGCCUUUUGCCUAGGUUGUGAUUUGUAACCUUCUGCCCA (ssRNA, 2'-F pyrimidines (library chemistry)) [CD70 (ChD70)]
binding result [1]: binds

GGGUGCCUUUUGCCUAGGUUGUGAUUUGUAACCUUCUGCCCA (ssRNA, 2'-OMe purines at 1-3, 16-18, 21, 23-24, 28, 30-31 and 42; 3'-3' U) [ChD70-m17]
binding result [1]: binds

GGGUGCCUUUUGCCUAGGUUGUGAUUUGUAACCUUCUGCCCA (ssRNA, 2'-OMe purines at 21, 23-24, 28 and 30) [ChD70-m13]
binding result [2]: binds

B1: 21a-21 (ssRNA)
RNA: GGGAGGACGAUGCGGUUCAGGAGGUUAUUACAGAGUCUGUAUAGCUGUACUCCCCAGACGACUCGCCCGA
modifications: 2'-F C and U
Kd [3]: ~1 nM

B2: 21a-21 (ssRNA)
RNA: GGGAGGACGAUGCGGUUCAGGAGGUUAUUACAGAGUCUGUAUAGCUGUACUCCCCAGACGACUCGCCCGA
modifications: 2'-F C and U; 2'-OH A and G
Ki [4]: 10 nM

GGAGGUUAUUACAGAGUCUGUAUAGCUGUACUCCCC (ssRNA, 2'-F C and U; 3'-3' dT cap) [NX22283]
binding signal [5]: 0.6 x Kd of NX22284 | Ki [6]: 10 nM

B3: 21a-4 (ssRNA)
RNA: GGGAGGACGAUGCGGCGUUGUUUAGUCGUAUGUAUAUACUAAGUCCGCUUGUCCCCAGACGACUCGCCCGA
modifications: 2'-F C and U
Kd [7]: ~3 nM

B4: 21a-4 (ssRNA)
RNA: GGGAGGACGAUGCGGCGUUGUUUAGUCGUAUGUAUAUACUAAGUCCGCUUGUCCCCAGACGACUCGCCCGA
modifications: 2'-F C and U; 2'-OH A and G
Ki [4]: 30 nM

UGUGAAUAUUAGAGAGUCUGUAUAGCUCUACCCC (ssRNA, 2'-F C and U; 3'-3' dT) [NX22385]
binding signal [8]: 0.4 x Kd of NX22284

B5: NX22425 (ssRNA)
RNA: UGUGAAUAUUAGAGAGUCUGUAUAGCUCUACCCC
modifications: 2'-F C and U; 2'-OMe at lowercase a,g of UgUgaaUAUUagagagUCUGUAUAgCUCUaCCCC; 3'-3' dT
binding signal [8]: 1.5 x Kd of NX22284

B6: NX22424 (ssRNA)
RNA: UGUGAAUAUUAGAGAGUCUGUAUAGCUCUACCCC
modifications: 2'-F C and U; 2'-OMe at lowercase a,g of UgUgAAUAUUaGagagUCUGUAUAgCUCUaCCCC; 3'-3' dT
binding signal [8]: 0.6 x Kd of NX22284

GGGGAGCGGCGUUGUUUAGUCGUAUGUAUAUACUAAGU (ssRNA, 2'-F C and U) [21a-4(ML-111)]
binding signal [9]: 30 x Kd of 21a-4

GGGGAGCGGCGUUGUUGAAAAGUCCGCUU (ssRNA, 2'-F C and U) [21a-4(ML-92)]
binding signal [9]: > 100 x Kd of 21a-4

GGGGAGCGGCGUUGUUUAUGUAUAAGUCCGCUU (ssRNA, 2'-F C and U) [21a-4(ML-109)]
binding signal [9]: > 100 x Kd of 21a-4

B7: 14i-1 (ssRNA)
RNA: GGGAGGACGAUGCGGAAGUAACGUUGUAGUAAAAUUCGUUCUCUCGGCAUUUGGCCAGACGACUCGCCCGA
modifications: 2'-F C and U
Kd [10]: ~10 nM

B8: 14i-1 (ssRNA)
RNA: GGGAGGACGAUGCGGAAGUAACGUUGUAGUAAAAUUCGUUCUCUCGGCAUUUGGCCAGACGACUCGCCCGA
modifications: 2'-F C and U; 2'-OH A and G
Ki [11]: 230 nM

GGGGAGCGGCGUUGUUUAGUCGUAUGUAUAUACUAAGUCCGC (ssRNA, 2'-F C and U) [21a-4(ML-110)]
binding signal [9]: 1 x Kd of 21a-4

GGGGAGCGGCGUUGUUUCGUAUGUAUAUAAGUCCGCUU (ssRNA, 2'-F C and U) [21a-4(ML-108)]
binding signal [9]: > 100 x Kd of 21a-4

GGAGGUUAUUACAGAGUCUGUAUAGCUGUACUCC (ssRNA, 2'-F C and U; 3'-3' dT cap) [NX22284]
Kd [12]: ~2 nM
